Experimental findings from article PMC3734125, “Epitope Mapping and In Silico Characterization of Interactions between Der p 7 Allergen and MoAb WH9” (PLoS ONE, 2013) are described below.

Holding throughout (assay): far-Western, overlay or dot blot; SDS-PAGE immunoblot: purified recombinant Der p 7 proteins on PVDF membrane, incubated with hybridoma culture supernatant (1:10 in TTBS, 1% skim milk) 1 h at room temperature; band intensities quantified; percent reduction against the wild type
Details in all cases: one partner purified
Background: In western blotting, separated proteins are transferred to a membrane and probed.

One test has as its target T1, Der p 7 P160A mutant (Dermatophagoides pteronyssinus, UniProt P49273, P160A).
T1 construct: Mite allergen Der p 7, Dermatophagoides pteronyssinus, GenBank U37044; also called P106A (as printed once); source: E. coli JM109, purified (Ni-NTA)

The next test concerns the target T2, Der p 7 L158A mutant (Dermatophagoides pteronyssinus, UniProt P49273, L158A).
T2 construct: Mite allergen Der p 7, Dermatophagoides pteronyssinus, GenBank U37044; source: E. coli JM109, purified (Ni-NTA)

In another test the target is T3, Der p 7 D159A mutant (Dermatophagoides pteronyssinus, UniProt P49273, D159A).
T3 construct: Mite allergen Der p 7, Dermatophagoides pteronyssinus, GenBank U37044; source: E. coli JM109, purified (Ni-NTA)

The next test addresses T4, Der p 7 S156A mutant (Dermatophagoides pteronyssinus, UniProt P49273, S156A).
T4 construct: Mite allergen Der p 7, Dermatophagoides pteronyssinus, GenBank U37044; source: E. coli JM109, purified (Ni-NTA)

Test [1] deals with T5, Der p 7 (wild type, recombinant) (Dermatophagoides pteronyssinus, UniProt P49273).
T5 construct: Mite allergen Der p 7, Dermatophagoides pteronyssinus, GenBank U37044; Expression and purification are described for the mutants (pQE80, E. coli JM109, Ni-NTA); also called wild-type Der p 7; source: purified recombinant protein
T5 sequence (P49273 18-215): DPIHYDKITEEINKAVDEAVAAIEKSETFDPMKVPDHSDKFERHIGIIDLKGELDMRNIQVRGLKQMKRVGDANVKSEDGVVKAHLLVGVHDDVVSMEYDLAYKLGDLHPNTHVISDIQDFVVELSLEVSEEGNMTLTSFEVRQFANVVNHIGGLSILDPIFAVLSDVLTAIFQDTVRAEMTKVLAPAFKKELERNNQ

T4 sequence (P49273 18-215 S156A): as the sequence (P49273 18-215) above, with S139A counted along it
T1 sequence (P49273 18-215 P177A): as the sequence (P49273 18-215) above, with P160A counted along it
T3 sequence (P49273 18-215 D176A): as the sequence (P49273 18-215) above, with D159A counted along it
T2 sequence (P49273 18-215 L175A): as the sequence (P49273 18-215) above, with L158A counted along it

B1: MoAb WH9 (antibody, V domains shown)
VH: QVQLEQSGAELAKVGASVKMSCKASGYTFTNYWMHWVKQRPGQGLEWIGYINPSIGYIDYNQKFKDKATLTVDKSSSTAYMQLSSLTSEDSAVYYCAGVEYGSSLGDYFDDWGQGTTL
VL: not shown
notes: variable domain of the heavy chain of WH9; the first nine amino acids derive from the PCR primer; variable domain of the light chain of WH9; the first eight amino acids derive from the PCR primer; also called mouse monoclonal antibody WH9; source: hybridoma WH9, culture supernatant
On to B1, for which the “mean percentage of reduction in immunoreactivity against the wild type” value in the test with Der p 7 P160A mutant was 87%; with Der p 7 L158A mutant, 87%; with Der p 7 D159A mutant it was 81%; in the test with Der p 7 S156A mutant, 18%. Also, the binding result in test [1] is given as “binds”.
